This is an account of results in patent publication US20080175829A1, “METHOD FOR INDUCING NEURAL DIFFERENTIATION” (priority 2004, published 2008).

The test system of assay [1] is size-sieved stem cells (SSCs) derived from human bone marrow. The assay is described as follows: Morphology of SSCs (phase contrast), neuronal-like transformation. It is filed as cell-based. The conditions noted are these: for morphology of neurites/processes of SSCs: ITS medium, 7 days, GDNF 50 ng/ml, PACAP 20 ng/ml, dbcAMP 0.1 mM, compared to ITS medium alone. As for the experimental part: SSCs were isolated from human bone marrow as described previously (Hung et al. (2002)). In brief, human bone marrow was aspirated from the iliac crest of normal donors, and then washed twice with phosphate-buffered saline (PBS). The cells were loaded into 1.073 g/ml Percoll solution (Sigma®), and then centrifuged at 900 g for 30 min. The mononuclear cells (MNCs) were collected from the interface, and plated at the density of 1×10^6 MNCs/cm^2 onto a 10-cm plastic culture dish comprised of an inserted sieve with 3-μm pores (Transwell System, Corning®). The cells were cultured in Dulbecco's modified Eagle's medium-low glucose (DMFM-LG) containing 10% fetal bovine serum (FBS), 100 U/ml penicillin, […] streptomycin, and 0.25 μg/ml amphotericin B (serum-containing medium). […] However, the cells that passed through the sieve were small, polygonal and had less renewal. SSCs were then harvested with 0.25% trypsin and 1 mM EDTA, and replated on 10-cm culture petri dishes. When SSCs were grown in serum containing medium to 80% confluence, the cells were replated onto 35-mm culture petri dishes at the density of 1×10^5 cells/dish for Western Blotting, or onto 8-well chambers at the density of 1×10^4 cells/well for immunofluorescence.
[…] ITS medium consisted of 56% DMEM-LG (Life Biotech®), 40% MCDB-201 medium (Sigma®), and 1×ITS medium supplement (Sigma®) contained 1 mg/ml insulin, 0.55 mg/ml human transferrin, 0.5 μg/ml sodium selenite, 10 nM dexamethasone (Sigma®), and 10 μM ascorbic acid (Sigma®)). […] However, when SSCs were cultured in serum free medium with ITS supplement, these cells adhered well onto cultured plates and extended their processes. Therefore, treatments were performed in ITS medium.

Assay [2] has the same test system. The assay is described as follows: Immunofluorescence staining for α-internexin in SSCs. The class given is cell-based. The conditions noted are these: 7 days in ITS medium; GDNF 50 ng/ml, PACAP 20 ng/ml, dbcAMP 0.1 mM. As for the experimental part:
Immunofluorescence staining for another neuronal intermediate filament protein, α-internexin (FIG. 5), was performed using antibodies against α-internexin (1:200; Chemicon®).

Assay [3] has the same test system. In words: Western Blotting of neuron-specific markers (NF-L, NF-H) and α-tubulin in SSCs. It is filed as cell-based. The conditions noted are these: 7 days in ITS medium; for expression of NF-L protein in SSCs: compared to ITS medium alone. As for the experimental part: This is to study the effects of GDNF, PACAP and dbcAMP on neuronal differentiation of SSC in ITS medium. The levels of neuron-specific markers (NF-L and NF-H) in the SSCs were examined by Western Blotting. The cells were replated at the density of 1×10^5 cells per 35 mm petri dish and cultured for 7 days in ITS medium with GDNF, PACAP or dbcAMP at the distinct concentrations. Cells were harvested and gently homogenized on ice using PBS containing 1% SDS, 1 mM phenylmethyl-sulfonylfluoride (PMSF), 1 mM EDTA, […], […], and […]. Protein concentrations were determined using a Bio-Rad® DC kit. Ten μg of total protein was loaded onto 7.5% SDS-PAGE, and transferred to a nitrocellulous membrane. NF-L (70 kDa) and NF-H (200 kDa) were identified by incubating the membrane with anti-NF antibodies (Chemicon®) overnight at 4° C., followed by horseradish peroxidase-conjugated secondary antibodies and enhanced chemiluminescence solution (NEN LifeScience®).

The test system of assay [4] is rats with spinal cord injury (SCI). The conditions noted are these: intraspinal injection; cited from earlier work.
The subject of assay [5] is size-sieved stem cells (SSCs) derived from human bone marrow. The assay is described as follows: Immunofluorescence for synapsin-1 in SSCs. The conditions noted are these: 7 days in ITS medium; 50 ng/ml GDNF or 20 nM PACAP. The class given is cell-based. As for the experimental part: To detect the morphological change of the SSCs that had been treated with 50 ng/ml GDNF or 20 nM PACAP in ITS medium for 7 days, the SSCs were fixed in PBS-containing 4% paraformaldehyde for 10 minutes. Examination of immunofluorescence for synapsin-1, a synapse vesicle protein, was performed by incubating SSCs with anti-synapsin-1 antibodies (1:200; BD Biosciences®) in PBS-containing 0.1% Triton X-100 and 5% horse serum overnight at 4° C., followed by biotinylated secondary antibodies (1:200; Vector®) and FITC-avidin (1:200; Vector®).

For `CCCC(=O)Nc1ncnc2c1ncn2[C@@H]1O[C@@H]2COP(=O)(O)O[C@H]2[C@H]1OC(=O)CCC` [dbcAMP, dibutyryl cAMP, reference compound], the “morphology of neurites/processes of SSCs” value in assay [1] was “induced highly branched, elongated, and delicate processes”. In assay [2], the “process branching/elongation of SSCs (α-internexin staining)” value is listed as “more extensive branched, elongated processes”. Also, in assay [3], the “level of α-tubulin in SSCs” value is listed as “increased” and the “expression of NF-L protein in SSCs” value is “increased”.

B1: GDNF: glial cell line-derived neurotrophic factor, a potent survival factor for many CNS neuronal cell populations (R&D) (protein, UniProt P39905 78-211, looked up)
Glial cell line-derived …: SPDKQMAVLPRRERNRQAAAANPENSRGKGRRGQRGKNRGCVLTAIHLNVTDLGLGYETKEELIFRYCSGSCDAAETTYDKILKNLSRNRRLVSDKVGQACCRPIAFDDDLSFLDDNLVYHILRKHSAKRCGCI
Turning to B1, the “response of SSCs in DMEM-LG medium without serum” value in assay [1] (DMEM-LG medium without serum (no ITS supplement)) is “respond poorly”. The “morphology of neurites/processes of SSCs” value in assay [1] was “further improved the extension of neurites”. In assay [4], the hindlimb recovery result is reported as “improved hindlimb recovery”. Moreover, the “processes of synapsin-1 positive cells” value in assay [5] is “extended processes with branching”. The “process branching/elongation of SSCs (α-internexin staining)” value in assay [2] was “could induce process branching of SSCs to some extent”. Further, in assay [3], the “NF-H levels in SSCs” value is recorded as “less effect”, the “level of α-tubulin in SSCs” value is “induces” and the “expression of NF-L protein in SSCs” value is given as “stimulatory effect”.
